This is an account of results in patent publication US20220259327A1 (published 2022).

For this test, the target named is T1, cyCD19 ECD (cynomolgus, UniProt A0A2K5W8L9 20-292).
T1 construct: extracellular domain; also called cynomolgus CD19 extracellular domain
T1 sequence: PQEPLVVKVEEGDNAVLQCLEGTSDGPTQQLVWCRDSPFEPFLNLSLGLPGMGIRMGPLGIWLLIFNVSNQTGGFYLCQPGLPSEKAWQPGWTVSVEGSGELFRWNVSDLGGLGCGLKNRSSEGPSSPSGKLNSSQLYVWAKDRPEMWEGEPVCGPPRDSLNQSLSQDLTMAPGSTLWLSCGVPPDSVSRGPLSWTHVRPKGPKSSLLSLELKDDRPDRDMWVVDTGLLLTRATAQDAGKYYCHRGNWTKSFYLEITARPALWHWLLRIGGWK
Nature of the test: binding to cyCD19 ECD, method not stated.

The EC50 is the midpoint of the concentration-response curve. The low end stands for greater potency, the high end for weaker potency.

B1: wild-type humanized anti-human CD19 antibody (var.0) (antibody, V domains shown)
VH: QVQLVQSGAEVKKPGASVKVSCKASGYTFTDYIMHWVRQAPGQGLEWMGYINPYNDGSKYTEKFNGKATMTSDTSISTAYMELSRLRSDDTAVYYCARGTYYYGSALFDYWGQGTTVTVSS
VL: DIVMTQTPLSLSVTPGQPASISCKSSQSLENSNGNTYLNWYLQKPGQSPQLLIYRVSKRFSGVPDRFSGSGSGTDFTLKISRVEAEDVGVYYCLQLTHVPYTFGQGTKLEIK
B1 yielded an EC50 of 0.313 mg/L.

B2: humanized anti-human CD19 antibody var.5 (S27eP), named clone 8B8-018 (antibody, V domains shown)
VH: QVQLVQSGAEVKKPGASVKVSCKASGYTFTDYIMHWVRQAPGQGLEWMGYINPYNDGSKYTEKFQGRVTMTSDTSISTAYMELSRLRSDDTAVYYCARGTYYYGSALFDYWGQGTTVTVSS
VL: DIVMTQTPLSLSVTPGQPASISCKSSQSLENPNGNTYLNWYLQKPGQSPQLLIYRVSKRFSGVPDRFSGSGSGTDFTLKISRVEAEDVGVYYCLQLTHVPYTFGQGTKLEIK
notes: also called variant 5
As to B2, the EC50 was 0.255 mg/L. The EC50 values of the last two molecules are within 1.5-fold of each other.

B3: humanized anti-human CD19 antibody var.9 (S27eP/N28S) (antibody, V domains shown)
VH: QVQLVQSGAEVKKPGASVKVSCKASGYTFTDYIMHWVRQAPGQGLEWMGYINPYNDGSKYTEKFQGRVTMTSDTSISTAYMELSRLRSDDTAVYYCARGTYYYGSALFDYWGQGTTVTVSS
VL: DIVMTQTPLSLSVTPGQPASISCKSSQSLENPSGNTYLNWYLQKPGQSPQLLIYRVSKRFSGVPDRFSGSGSGTDFTLKISRVEAEDVGVYYCLQLTHVPYTFGQGTKLEIK
B3 yielded an EC50 of 0.435 mg/L.
